Here are results for one molecule from patent US20190248907A1 (published 2019).

Test [1] addresses o.a. B10v5. Nature of the test: -; apparent KD.
Test [2] deals with bp.CS06xB10v5. Kind of test: -; apparent KD.

B1: hu c-Met (receptor)
chain: ECKEALAKSEMNVNMKYQLPNFTAETPIQNVILHEHHIFLGATNYIYVLNEEDLQKVAEYKTGPVLEHPDCFPCQDCSSKANLSGGVWKDNINMALVVDTYYDDQLISCGSVNRGTCQRHVFPHNHTADIQSEVHCIFSPQIEEPSQCPDCVVSALGAKVLSSVKDRFINFFVGNTINSSYFPDHPLHSISVRRLKETKDGFMFLTDQSYIDVLPEFRDSYPIKYVHAFESNNFIYFLTVQRETLDAQTFHTRIIRFCSINSGLHSYMEMPLECILTEKRKKRSTKKEVFNILQAAYVSKPGAQLARQIGASLNDDILFGVFAQSKPDSAEPMDRSAMCAFPIKYVNDFFNKIVNKNNVRCLQHFYGPNHEHCFNRTLLRNSSGCEARRDEYRTEFTTALQRVDLFMGQFSEVLLTSISTFIKGDLTIANLGTSEGRFMQVVVSRSGPSTPHVNFLLDSHPVSPEVIVEHTLNQNGYTLVITGKKITKIPLNGLGCRHFQSCSQCLSAPPFVQCGWCHDKCVRSEECLSGTWTQQICLPAIYKVFPNSAPLEGGTRLTICGWDFGFRRNNKFDLKKTRVLLGNESCTLTLSESTMNTLKCTVGPAMNKHFNMSIIISNGHGTTQYSTFSYVDPVITSISPKYGPMAGGTLLTLTGNYLNSGNSRHISIGGKTCTLKSVSNSILECYTPAQTISTEFAVKLKIDLANRETSIFSYREDPIVYEIHPTKSFISGGSTITGVGKNLNSVSVPRMVINVHEAGRNFTVACQHRSNSEIICCTTPSLQQLNLQLPLKTKAFFMLDGILSKYFDLIYVHNPVFKPFEKPVMISMGNENVLEIKGNDIDPEAVKGEVLKVGNKSCENIHLHSEAVLCTVPNDLLKLNSELNIEWKQAISSTVLGKVIVQPDQNFT
As for B1, the Kd is 417 pM in test [1] and 19.6 pM in test [2].
